Test results from article PMC8578170, “Electron carriers involved in autotrophic and heterotrophic acetogenesis in the thermophilic bacterium Thermoanaerobacter kivui” (Extremophiles, 2021).
Values belong to the molecule of their own block, whether it stands above or below them.

How the values were obtained:
[1] = molecular target: T1, His-MetFV (Thermoanaerobacter kivui, UniProt A0A097ATJ3); assay: thin-layer chromatography of flavin released from purified complex; assay type: binding; details: 10 µM FMN in purification buffers unless otherwise specified
T1 construct: gene metF; with Methylenetetrahydrofolate reductase subunit MetV
T1 sequence (A0A097ATJ3 1-291): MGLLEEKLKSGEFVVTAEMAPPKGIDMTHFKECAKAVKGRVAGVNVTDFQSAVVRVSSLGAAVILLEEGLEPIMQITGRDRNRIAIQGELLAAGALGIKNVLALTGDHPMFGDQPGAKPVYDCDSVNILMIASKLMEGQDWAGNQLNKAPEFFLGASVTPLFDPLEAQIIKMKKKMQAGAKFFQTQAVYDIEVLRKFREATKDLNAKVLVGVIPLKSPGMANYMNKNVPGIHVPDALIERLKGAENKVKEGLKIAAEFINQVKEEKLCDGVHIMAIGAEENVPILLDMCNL
T1 sequence (A0A097ATJ4 1-216 partner): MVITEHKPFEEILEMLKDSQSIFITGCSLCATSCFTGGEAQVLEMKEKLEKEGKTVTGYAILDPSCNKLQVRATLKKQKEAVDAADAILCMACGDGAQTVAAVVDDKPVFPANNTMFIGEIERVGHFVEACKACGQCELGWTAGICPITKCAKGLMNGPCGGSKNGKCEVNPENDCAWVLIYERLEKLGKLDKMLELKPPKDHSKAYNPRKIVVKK

[2] = molecular target: T1, His-MetFV; assay: spectrophotometric methyl-THF:benzyl viologen oxidoreductase assay, […] nm; assay type: biochemical; details: 1 mM methyl-THF, 10 mM benzyl viologen; 50 mM KPi, 20 mM ascorbate, pH 7, 66 °C
[3] = molecular target: T1, His-MetFV; assay: spectrophotometric reduced methyl viologen:methylene-THF oxidoreductase assay, […] nm; assay type: biochemical; details: methylene-THF formed from 0.5 mM THF and 1.5 mM formaldehyde; 10 mM methyl viologen, dithionite; 50 mM KPi, 20 mM ascorbate, pH 7, 66 °C
[4] = molecular target: His-HydABC, electron-bifurcating hydrogenase complex of T. kivui (Thermoanaerobacter kivui); assay: SEC; analytical size exclusion chromatography on a calibrated Superdex 200 column with size standards; buffer B (50 mM Tris/HCl, 150 mM NaCl, 20 mM MgSO4, 2 mM DTE, 20% glycerol, pH 7.5)
[5] = molecular target: the molecule itself; assay: as above
[6] = substrate: NC(=O)c1ccc[n+]([C@@H]2O[C@H](COP(=O)(O)OP(=O)(O)OC[C@H]3O[C@@H](n4cnc5c(N)ncnc54)[C@H](OP(=O)(O)O)[C@@H]3O)[C@@H](O)[C@H]2O)c1; assay: purified protein; details: H2 and C. pasteurianum ferredoxin as co-substrates, 5 µM FMN, 50 mM EPPS, 10 mM NaCl, pH 8, 66 °C
[7] = substrate: Cc1cc2nc3c(=O)[nH]c(=O)nc-3n(C[C@H](O)[C@H](O)[C@H](O)COP(=O)(O)O)c2cc1C; assay: spectrophotometric H2:Fd/NADP+ oxidoreductase assay; assay type: biochemical, Thermoanaerobacter kivui; details: H2, ferredoxin and NADP+ as co-substrates, pH 8, 66 °C, FMN stimulation of activity, error exceeds the value, varied: cofactor
[8] = molecular target: His-HydABC, electron-bifurcating hydrogenase complex of T. kivui (Thermoanaerobacter kivui)

Molecule: Cc1cc2nc3c(=O)[nH]c(=O)nc-3n(C[C@H](O)[C@H](O)[C@H](O)COP(=O)(O)O)c2cc1C [FMN]
thin-layer chromatography of flavin released from purified complex [1]: subsequent separation of the flavin-containing supernatant by thin-layer chromatography (TLC), FMN could be detected

Molecule: CN1c2c(nc(N)[nH]c2=O)NC[C@@H]1CNc1ccc(C(=O)N[C@@H](CCC(=O)O)C(=O)O)cc1 [methyl-THF]
spectrophotometric methyl-THF:benzyl viologen oxidoreductase assay, 600 nm [2]: oxidation of methyl-THF was not coupled to NAD^+, NADP^+ or Fd reduction

Molecule: Nc1nc2c(c(=O)[nH]1)N1CN(c3ccc(C(=O)N[C@@H](CCC(=O)O)C(=O)O)cc3)C[C@H]1CN2 [methylene-THF]
spectrophotometric reduced methyl viologen:methylene-THF oxidoreductase assay, 6 [3]: The purified MetFV complex catalyzed the reduction of methylene-THF with reduced MV

stoichiometry N [4]: 2
Molecule: His-HydABC, electron-bifurcating hydrogenase complex of T. kivui (from UniProt A0A097ATG4 1-630; A0A097ATI0 1-170)

B1: His-MetFV, methylene-THF reductase complex of T. kivui (complex, Thermoanaerobacter kivui)
chain 1: MGLLEEKLKSGEFVVTAEMAPPKGIDMTHFKECAKAVKGRVAGVNVTDFQSAVVRVSSLGAAVILLEEGLEPIMQITGRDRNRIAIQGELLAAGALGIKNVLALTGDHPMFGDQPGAKPVYDCDSVNILMIASKLMEGQDWAGNQLNKAPEFFLGASVTPLFDPLEAQIIKMKKKMQAGAKFFQTQAVYDIEVLRKFREATKDLNAKVLVGVIPLKSPGMANYMNKNVPGIHVPDALIERLKGAENKVKEGLKIAAEFINQVKEEKLCDGVHIMAIGAEENVPILLDMCNL
chain 2: MVITEHKPFEEILEMLKDSQSIFITGCSLCATSCFTGGEAQVLEMKEKLEKEGKTVTGYAILDPSCNKLQVRATLKKQKEAVDAADAILCMACGDGAQTVAAVVDDKPVFPANNTMFIGEIERVGHFVEACKACGQCELGWTAGICPITKCAKGLMNGPCGGSKNGKCEVNPENDCAWVLIYERLEKLGKLDKMLELKPPKDHSKAYNPRKIVVKK
notes: One MetFV heterodimer; By analytical SEC the purified complex (174 kDa) is consistent with three MetFV heterodimers; It contains iron-sulfur clusters and FMN; also called MTHFR; MetFV heterodimer; source: T. kivui (DSM 2030), plasmid pMU131_His-metFV, produced homologously, purified (Ni2+-NTA, Superdex 200)
stoichiometry N [5]: 3

B2: His-HydABC (Thermoanaerobacter kivui) (protein)
chain: MVKLKSIQELENLREKIKEAKKKEKIVIRICGGTGCRASGSLAVRDELVKVLKREGFANVDVNLSSDCLENTSEVHVKMTGCQGFCAQGPLMTIEPLGVFYVGVKPEDVEEIVEKSIKKNEIIERLLYHDPATGKTYVKRDENPFYAKQTRLVLKHCGTVDPASVYDYIAEGGYSAIAKALTMDRKQIIDEVIKSGLRGRGGAGFPTGEKWLGAYKNQSPKKYIICNGDEGDPGAFMDRSVMEGDPHKVIEGMMIGAYAIGSDEGYIYVRAEYPLAVQMLRKAIEECEKLGLLGDNILGTGFSFRLHVREGAGAFVCGESTALTYSIEGKRGMPRVRPPRTNECGLWEMPTVLNNVETFACIPEIILNGGEWFASIGTPTSTGTKIFALSGKVNRTGLVEVPMGLKLRELIFDIGGGIANNKKFKAVQLGGPSGGCVPESQLDLPIDFDSLSKAGAIMGSGGVVVVDEDTCMVDFAKFFTNFIVEESCGKCIPCREGNKKMLEILERITEGKGKEGDIELLEELGDVIISASLCGLGKTAPNPVLSTIKHFRDEYEAHIRDKKCPAGACQALAAYKIDPGKCIGCGKCVKVCPVGAISGEKKKPHVIDQSKCIKCGACAENCPKGAIYKG
notes: HydABC complex, 10xHis tag at 3' end of hydA, plasmid pMU131, produced homologously in T. kivui; Ni-NTA and Superdex 200; 348 kDa, dimer of HydABC (HydA 64, HydB 68, HydC 18 kDa); with Electron-bifurcating [FeFe] hydrogenase subunit HydA; Electron-bifurcating hydrogenase subunit HydC
Km [6]: 48.8 ± 10.6 µM
Km [7]: 0.3 ± 0.8 µM

Km for Fd in the NADP+-dependent H2:Fd oxidoreductase assay (Fd 0–200 µM, 66 °C) [8]: 13.6 µM
B3: ferredoxin isolated from Clostridium pasteurianum (natural protein)
chain: MAYKIADSCVSCGACASECPVNAISQGDSIFVIDADTCIDCGNCANVCPVGAPVQE
